# Assay results: patent publication US20150344570A1 (published 2015)
# T1: FcγRIIa H (human, UniProt P12318 34-217)
# T1 construct: extracellular domain; also called FcgRIIa H; FcγRIIa type H
# T1 sequence (looked up): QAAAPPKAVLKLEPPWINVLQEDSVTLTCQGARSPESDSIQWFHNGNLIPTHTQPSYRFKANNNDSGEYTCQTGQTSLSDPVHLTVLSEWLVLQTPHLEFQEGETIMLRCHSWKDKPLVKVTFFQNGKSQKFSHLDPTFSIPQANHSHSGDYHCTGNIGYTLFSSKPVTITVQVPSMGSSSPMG
# T2: FcγRIIb (human, UniProt P31994 43-217)
# T2 construct: extracellular domain; also called FcgRIIb; 2b
# T2 sequence (looked up): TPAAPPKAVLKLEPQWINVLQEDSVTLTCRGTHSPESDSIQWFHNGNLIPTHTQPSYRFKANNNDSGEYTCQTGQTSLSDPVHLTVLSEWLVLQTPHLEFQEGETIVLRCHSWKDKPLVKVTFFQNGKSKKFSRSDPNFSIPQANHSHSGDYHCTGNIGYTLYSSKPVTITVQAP
# B1: GpH7-A5/GpH7-B3 variant G237_11K/GpL16-k0 (antibody, human IgG1, kappa)
# heavy 1: not shown
# heavy 2: not shown
# light: DIVMTQSPLSLPVTPGEPASISCQASESLVHSNRNTYLHWYLQKPGQSPQLLIYKVSNRFSGVPDRFSGSGSGTDFTLKISRVEAEDVGVYYCSQNTHVPPTFGQGTKVEIERTVAAPSVFIFPPSDEQLKSGTASVVCLLNNFYPREAKVQWKVDNALQSGNSQESVTEQDSKDSTYSLSSTLTLSKADYEKHKVYACEVTHQGLSSPVTKSFNRGEC
# notes: Heterodimerized antibody, alteration in one H chain only; also called He Ab G237K
# B2: GpH7-A5/GpH7-B3 variant G237_20W/GpL16-k0 (antibody, human IgG1, kappa)
# heavy 1: not shown
# heavy 2: not shown
# light: B1 light
# notes: Heterodimerized antibody, alteration in one H chain only; also called He Ab G237W
# B3: GpH7-A5/GpH7-B3 variant G237_18N/GpL16-k0 (antibody, human IgG1, kappa)
# heavy 1: not shown
# heavy 2: not shown
# light: B1 light
# notes: Heterodimerized antibody, alteration in one H chain only; also called He Ab G237N
# B4: GpH7-A5/GpH7-B3 variant L235_20W/GpL16-k0 (antibody, human IgG1, kappa)
# heavy 1: not shown
# heavy 2: not shown
# light: B1 light
# notes: Heterodimerized antibody, alteration in one H chain only; also called He Ab L235W
# B5: GpH7-A5/GpH7-B3 variant G237_19Q/GpL16-k0 (antibody, human IgG1, kappa)
# heavy 1: not shown
# heavy 2: not shown
# light: B1 light
# notes: Heterodimerized antibody, alteration in one H chain only; also called He Ab G237Q
# B6: GpH7-A5/GpH7-B3 variant G237_16H/GpL16-k0 (antibody, human IgG1, kappa)
# heavy 1: not shown
# heavy 2: not shown
# light: B1 light
# notes: Heterodimerized antibody, alteration in one H chain only; also called He Ab G237H
# B7: GpH7-A5/GpH7-B3 variant L235_09D/GpL16-k0 (antibody, human IgG1, kappa)
# heavy 1: not shown
# heavy 2: not shown
# light: B1 light
# notes: Heterodimerized antibody, alteration in one H chain only; also called He Ab L235D
# B8: GpH7-A5/GpH7-B3 variant P238_01G/GpL16-k0 (antibody, human IgG1, kappa)
# heavy 1: not shown
# heavy 2: not shown
# light: B1 light
# notes: Heterodimerized antibody, alteration in one H chain only; also called He Ab P238G
# B9: GpH7-A5/GpH7-B3 variant L234_09D/GpL16-k0 (antibody, human IgG1, kappa)
# heavy 1: not shown
# heavy 2: not shown
# light: B1 light
# notes: Heterodimerized antibody, alteration in one H chain only; also called He Ab L234D
# B10: GpH7-A5/GpH7-B3 variant G237_15Y/GpL16-k0 (antibody, human IgG1, kappa)
# heavy 1: not shown
# heavy 2: not shown
# light: B1 light
# notes: Heterodimerized antibody, alteration in one H chain only; also called He Ab G237Y
# B11: GpH7-A5/GpH7-B3 variant G237_14T/GpL16-k0 (antibody, human IgG1, kappa)
# heavy 1: not shown
# heavy 2: not shown
# light: B1 light
# notes: Heterodimerized antibody, alteration in one H chain only; also called He Ab G237T
# B12: GpH7-A5/GpH7-B3 variant G237_13S/GpL16-k0 (antibody, human IgG1, kappa)
# heavy 1: not shown
# heavy 2: not shown
# light: B1 light
# notes: Heterodimerized antibody, alteration in one H chain only; also called He Ab G237S
# B13: GpH7-A5/GpH7-B3 variant L234_10E/GpL16-k0 (antibody, human IgG1, kappa)
# heavy 1: not shown
# heavy 2: not shown
# light: B1 light
# notes: Heterodimerized antibody, alteration in one H chain only; also called He Ab L234E
# B14: GpH7-A5/GpH7-B3 variant P238_06M/GpL16-k0 (antibody, human IgG1, kappa)
# heavy 1: not shown
# heavy 2: not shown
# light: B1 light
# notes: Heterodimerized antibody, alteration in one H chain only; also called He Ab P238M
# B15: GpH7-A5/GpH7-B3 variant P238_04F/GpL16-k0 (antibody, human IgG1, kappa)
# heavy 1: not shown
# heavy 2: not shown
# light: B1 light
# notes: Heterodimerized antibody, alteration in one H chain only; also called He Ab P238F
# B16: GpH7-A5/GpH7-B3 variant P238_03V/GpL16-k0 (antibody, human IgG1, kappa)
# heavy 1: not shown
# heavy 2: not shown
# light: B1 light
# notes: Heterodimerized antibody, alteration in one H chain only; also called He Ab P238V
# Molecular target: T1, FcγRIIa H
# Assay: SPR (Biacore); He/Con_2aH divided by He/Con_2b (FcγRIIa H over FcγRIIb)
row,He_2aH/2b (IIaH/IIb),Binder
1,0.64 ratio,B1
2,0.16 ratio,B2
3,0.08 ratio,B3
4,0.8 ratio,B4
5,0.25 ratio,B5
6,0.3 ratio,B6
7,0.71 ratio,B7
8,0.66 ratio,B8
9,0.6 ratio,B9
10,0.17 ratio,B10
11,0.58 ratio,B11
12,0.27 ratio,B12
13,0.75 ratio,B13
14,0.27 ratio,B14
15,0.21 ratio,B15
16,0.74 ratio,B16

# Molecular target: T1, FcγRIIa H
# Assay: SPR (Biacore), antibody captured, FcγR analyte; binding relative to GpH7-A5/GpH7-B3/GpL16-k0 = 100
row,He/Con_2aH,Binder
1,5.8 % of control,B1
2,31.6 % of control,B2
3,15.2 % of control,B3
4,118 % of control,B4
5,26.5 % of control,B5
6,16.4 % of control,B6
7,75.8 % of control,B7
8,37.3 % of control,B8
9,89.9 % of control,B9
10,25.4 % of control,B10
11,31.8 % of control,B11
12,29.8 % of control,B12
13,88.3 % of control,B13
14,47.6 % of control,B14
15,65.4 % of control,B15
16,89 % of control,B16

# Molecular target: T2, FcγRIIb
# Assay: as above
row,He/Con_2b,Binder
1,9 % of control,B1
2,193 % of control,B2
3,180 % of control,B3
4,147 % of control,B4
5,108 % of control,B5
6,55.2 % of control,B6
7,106 % of control,B7
8,56 % of control,B8
9,150 % of control,B9
10,152 % of control,B10
11,54.8 % of control,B11
12,111 % of control,B12
13,118 % of control,B13
14,174 % of control,B14
15,312 % of control,B15
16,120 % of control,B16
